The labels stand for the following.
T1: human IgG1 Fc-tagged mouse PVRIG (m-PVRIG-hIgG1 Fc) (mouse, UniProt A0A1B0GS01 35-165)
T1 construct: bought from Acrobiosystems; also called Mouse PVRIG-Fc; mouse PVRIG recombinant protein; not shown: human IgG1 Fc tag of the Acrobiosystems product, and any linker to it
T1 sequence: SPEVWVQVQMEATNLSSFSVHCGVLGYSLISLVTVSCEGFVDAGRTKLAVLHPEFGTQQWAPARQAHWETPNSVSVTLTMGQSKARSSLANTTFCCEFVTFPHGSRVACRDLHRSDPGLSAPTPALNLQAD

T2: his-tagged human PVRIG (h-PVRIG-his) recombinant protein (human, UniProt Q6DKI7 41-171, limits assumed)
T2 construct: bought from Acrobiosystems; also called Human PVRIG-his; human PVRIG recombinant protein; not shown: his tag
T2 sequence (looked up): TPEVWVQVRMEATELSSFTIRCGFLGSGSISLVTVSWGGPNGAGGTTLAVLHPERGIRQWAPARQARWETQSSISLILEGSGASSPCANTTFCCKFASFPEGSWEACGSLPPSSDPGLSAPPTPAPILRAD

T3: his-tagged cynomolgus monkey PVRIG (cyno-PVRIG-his) recombinant protein (cynomolgus monkey)
T3 construct: expressed in HEK293, purified by Ni-NTA; also called Monkey PVRIG-his; cynomolgus monkey PVRIG recombinant protein
T3 chain: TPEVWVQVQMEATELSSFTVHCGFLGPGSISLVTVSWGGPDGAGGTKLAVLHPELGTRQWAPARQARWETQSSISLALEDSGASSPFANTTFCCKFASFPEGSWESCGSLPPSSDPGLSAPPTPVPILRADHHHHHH

T4: human PVRIG expressed on cells (human, UniProt Q6DKI7 41-326)
T4 construct: whole, on cells; also called Human PVRIG FACS; cells overexpressing human PVRIG
T4 sequence (looked up): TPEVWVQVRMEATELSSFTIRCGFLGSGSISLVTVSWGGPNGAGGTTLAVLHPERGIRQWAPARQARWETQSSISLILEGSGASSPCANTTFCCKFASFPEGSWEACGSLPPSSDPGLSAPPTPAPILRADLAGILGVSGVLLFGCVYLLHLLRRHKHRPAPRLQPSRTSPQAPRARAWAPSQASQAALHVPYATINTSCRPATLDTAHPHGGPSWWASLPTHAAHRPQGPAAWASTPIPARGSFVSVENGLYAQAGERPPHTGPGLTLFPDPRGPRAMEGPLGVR

T5: cynomolgus monkey PVRIG expressed on cells (cynomolgus monkey, UniProt A0A2K5WVV8 1-322)
T5 construct: whole, on cells; also called Monkey PVRIG FACS; cells overexpressing cynomolgus monkey PVRIG
T5 sequence: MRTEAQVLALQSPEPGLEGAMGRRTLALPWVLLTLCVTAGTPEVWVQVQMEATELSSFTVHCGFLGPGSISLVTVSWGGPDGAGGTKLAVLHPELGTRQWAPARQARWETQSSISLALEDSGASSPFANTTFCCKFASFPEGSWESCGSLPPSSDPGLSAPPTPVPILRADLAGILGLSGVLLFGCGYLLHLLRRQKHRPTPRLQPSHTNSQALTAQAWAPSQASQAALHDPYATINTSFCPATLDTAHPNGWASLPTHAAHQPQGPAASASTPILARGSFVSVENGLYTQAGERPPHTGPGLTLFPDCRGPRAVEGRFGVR

B1: anti-PVRIG antibody 151 (antibody, human IgG4 S228P, F234A L235A, V domains shown)
VH: HVQLVESGGGSVQAGGSLRLSCVASASGFTYRPYCMAWFRQAPGKEREAVAGIDIFGGTTYADSVKGRFTASRDNAGFSLFLQMNDLKPEDTAMYYCAAGDSPDGRCPPLGQGLNYWGQGTQVTVSS
notes: no light chain
B2: anti-PVRIG antibody 39 (antibody, human IgG4 S228P, F234A L235A, V domains shown)
VH: QVQLVESGGGSVQAGGSLRLSCAASRYTSRTDCMGWFRQAPGKEREGVAHIDSDGIPRYVESVKGRFTISQDHAKNTLYLQMNSLKPEDSATYYCVVGFKFGDYCAPNDWGQGTQVTVSS
notes: no light chain
B3: anti-PVRIG antibody 38 (antibody, human IgG4 S228P, F234A L235A, V domains shown)
VH: QVQLVESGGGSVQAGGSLRLSCAASPSTYGPSDMAWFRQAPGKQREGVATISAAGRLTYYTDSVRGRFTISRDNAKNTMYLQMNSLKPEDTAMYYCAADFAGGSSLFADYKYWGQGTQVTVSS
notes: no light chain
B4: anti-PVRIG antibody 30 (antibody, human IgG4 S228P, F234A L235A, V domains shown)
VH: HVQLVESGGGSVQAGGSLRLSCEASGYSYSGDCMGWFRRAPGKERDEGVATIDNAGRIKYADSVKGRFTISHGNGKYILYLQMNSLKPEDTDMYYCAAGWTFGGNCSPADWGQGTQVTVSS
notes: no light chain
B5: positive antibody Tab5 (antibody, human IgG4 S228P, kappa, F234A L235A, V domains shown)
VH: EVQLVESGGGVVKPGGSLRLSCAASGFTFGTSSMNWVRQAPGKGLEWVAVISFDGTEIHYADSVKGRFTISRDNSKSTVFLQMNSLRPDDTALYYCAKGSGNIYFYSGMDVWGQGTTVTVSS
VL: DIQMTQSPSTLSASVGDRVTITCRAGQSISGWLAWFQQKPGKAPNLLIYETSTLESGVPSRFSGSGSGTEYTLTISSLQPDDFATYYCQQYYSYPLTFGQGTKVEIKR
notes: Variable regions of CPA.7.021 (WO2016134333A1) on human IgG4 (S228P/F234A/L235A/K447A) and human kappa constant regions
B6: humanized anti-PVRIG/TIGIT bispecific antibody 1708-20H5 (bispecific antibody, human IgG4 S228P, kappa)
heavy: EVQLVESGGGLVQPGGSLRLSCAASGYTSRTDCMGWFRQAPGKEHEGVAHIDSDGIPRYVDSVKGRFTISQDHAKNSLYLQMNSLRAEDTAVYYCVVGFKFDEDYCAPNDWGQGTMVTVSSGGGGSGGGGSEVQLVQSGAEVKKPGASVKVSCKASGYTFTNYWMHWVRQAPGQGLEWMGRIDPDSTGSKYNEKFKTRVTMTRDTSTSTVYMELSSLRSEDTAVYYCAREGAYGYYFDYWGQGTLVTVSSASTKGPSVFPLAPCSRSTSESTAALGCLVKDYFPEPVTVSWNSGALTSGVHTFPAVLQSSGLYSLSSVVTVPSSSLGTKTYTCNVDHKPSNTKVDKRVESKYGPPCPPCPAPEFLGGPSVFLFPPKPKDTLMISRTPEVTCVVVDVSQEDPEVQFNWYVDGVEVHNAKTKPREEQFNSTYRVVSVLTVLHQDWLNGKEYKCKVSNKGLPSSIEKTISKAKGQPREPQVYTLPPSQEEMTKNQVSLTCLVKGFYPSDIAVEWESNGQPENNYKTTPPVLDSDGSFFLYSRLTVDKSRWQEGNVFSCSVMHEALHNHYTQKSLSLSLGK
light: DIQMTQSPSSLSASVGDRVTITCRASENIYSYLAWYQQKPGKSPKLLIYNARTLAEGVPSRFSGSGSGTDFTLTISSLQPEDFATYYCQYHSGSPLPFGGGTKVEIKRTVAAPSVFIFPPSDEQLKSGTASVVCLLNNFYPREAKVQWKVDNALQSGNSQESVTEQDSKDSTYSLSSTLTLSKADYEKHKVYACEVTHQGLSSPVTKSFNRGEC
B7: humanized anti-PVRIG/TIGIT bispecific antibody 1708-30H2 (bispecific antibody, human IgG4 S228P, kappa)
heavy: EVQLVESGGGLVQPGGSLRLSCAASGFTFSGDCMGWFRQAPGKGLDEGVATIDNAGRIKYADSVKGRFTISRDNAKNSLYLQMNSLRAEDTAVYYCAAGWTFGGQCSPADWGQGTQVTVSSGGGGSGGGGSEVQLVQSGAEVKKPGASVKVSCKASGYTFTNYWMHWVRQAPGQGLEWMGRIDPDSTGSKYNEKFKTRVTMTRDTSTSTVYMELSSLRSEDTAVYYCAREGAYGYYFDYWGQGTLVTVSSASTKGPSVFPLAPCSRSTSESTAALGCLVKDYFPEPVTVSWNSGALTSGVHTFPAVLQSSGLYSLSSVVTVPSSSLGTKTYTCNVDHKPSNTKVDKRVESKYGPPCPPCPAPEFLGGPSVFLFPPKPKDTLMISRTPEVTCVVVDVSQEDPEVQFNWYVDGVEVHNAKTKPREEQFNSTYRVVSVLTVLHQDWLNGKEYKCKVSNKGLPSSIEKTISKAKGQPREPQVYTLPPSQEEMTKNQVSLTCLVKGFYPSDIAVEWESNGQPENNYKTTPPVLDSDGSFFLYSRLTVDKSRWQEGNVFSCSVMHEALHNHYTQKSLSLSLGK
light: B6 light

The first assay deals with T1, human IgG1 Fc-tagged mouse PVRIG …. Put plainly: ELISA, coated antigen. How it is done:
(§1) ELISA assay was used to detect binding properties of anti-PVRIG antibodies. […] After the antibody was added, the activity of the binding of the antibody to the antigen was detected by adding a secondary antibody (HRP-conjugated anti-primary antibody Fc antibody) and HRP substrate TMIB.
(§2) A human, cynomolgus monkey, or mouse PVRIG protein (at a concentration of 1 μg/mL) was coated on a 96-well microplate at 100 μL per well, and incubated overnight at 4° C. The plate was washed three times with wash buffer at 250 μL per well. For each wash, the plate was shaken for 10 s to ensure adequate cleaning. A blocking solution (PBS+0.05% Tween20+1% BSA) was added at 300 μL/well, and the plate was incubated at room temperature for 1 h. The plate was washed three times with wash buffer at 250 μL per well. For each wash, the plate was shaken for 10 s to ensure adequate cleaning. Dilutions of the test anti-PVRIG antibodies were added at 100 μL/well. The plate was incubated at 37° C. for 1 h. The plate was washed three times with wash buffer at 250 μL per well. The […] anti-human IgG secondary antibody (Sigma, A8667) was added at 100 μL per well. The plate was incubated at 37° C. for 1 h. The plate was washed three times with wash buffer at 250 μL per well. TMB was added at 100 μL/well, and the plate was incubated in the dark for 15 min. 0.16 M sulfuric acid was added at 50 μL/well. The OD values at 450 nm were read by using a Thermo MultiSkanFc microplate reader, and the EC₅₀ values of the binding of the anti-PVRIG antibodies to PVRIG were calculated.
Background: An ELISA detects its analyte on a solid surface through an enzyme-linked reagent.
As to B1, the binding result was “no binding”.

For the molecule B2, the binding result is listed as “no binding”.

Consider B3, for which the binding result is listed as “no binding”.

Consider B4, for which the binding result is listed as “no binding”.

As to B5, the binding result is reported as “no binding”.

The next assay has as its target T2, his-tagged human PVRIG (h-PVRIG-his) …. Kind of assay: ELISA, coated antigen. How it is done:
as §1, §2
Broadly, the EC50 is the concentration that produces a half-maximal response. Turning to B1, the EC50 amounted to 2.15 nM.

For the molecule B2, the EC50 turned out to be 0.27 nM.

Consider B3, for which the EC50 was determined as 0.26 nM.

Consider B4, for which the EC50 amounted to 0.26 nM.

B5: the EC50 is 2.86 nM.

The target in the next assay is T3, his-tagged cynomolgus monkey PVRIG …. Put plainly: ELISA, coated antigen. How it is done:
as §1, §2
Consider B1, for which the EC50 worked out at 2.43 nM.

Consider B2, for which the EC50 was 0.16 nM.

For the molecule B3, the EC50 was 0.4 nM.

On to B4, for which the EC50 turned out to be 0.16 nM.

The next assay concerns the target T4, human PVRIG expressed on cells. Kind of assay: FACS, HEK293 cells overexpressing target. The text has this: (§3) A flow cytometer (FACS) was used to detect binding properties of anti-PVRIG antibodies. A cell strain overexpressing human or cynomolgus monkey PVRIG was constructed, and after the addition of the antibody, the activity of the binding of the antibody to the antigen was detected by the addition of a secondary antibody.
(§4) The expression plasmid carrying human or cynomolgus monkey PVRIG gene sequence was transfected into HEK293 cells, and the over-expressing stable transfection monoclonal cell strain was obtained by antibiotic screening and infinite dilution. Overexpressing cells were seeded into a 96-well plate at 2×10⁵ cells/per well. The cells were centrifuged at 300 g for 5 min, the supernatant was then removed, 100 μL of the test antibody was added, and the mixture was incubated at 4° C. for 1 h. The mixture was centrifuged, the supernatant was removed, the plate was washed 3 times with 200 μL of wash buffer (PBS+2% FBS), and then 100 μL of an anti-human IgG secondary antibody (Invitrogen, A-11013) labeled with Alexa Fluor 488 diluted at 1:500 was added. The mixture was incubated at 4° C. for 1 h. The plate was centrifuged, and the supernatant was removed. The plate was washed 3 times with 200 μL of wash buffer (PBS+2% FBS). The cells were resuspended in 100 μL of PBS and tested on a flow cytometer (BD FACS Calibur or BD FACS Canto_II).
A general note: In flow cytometry, cells or beads pass a laser one at a time.
As to B1, the EC50 is 0.01 nM.

B2 returned an EC50 of 0.004 nM.

For the molecule B3, the EC50 amounted to 0.24 nM.

On to B5, for which the EC50 was determined as 2.13 nM.

The target of the next assay is T5, cynomolgus monkey PVRIG expressed on …. Kind of assay: FACS, HEK293 cells overexpressing target.
Source text: as §3, §4
The molecule B1 came in with an EC50 of 2.23 nM.

Molecule B2 yielded an EC50 of 6.97 nM.

Molecule B3 registered an EC50 of 0.34 nM.

Molecule B4 gave an EC50 of 0.02 nM.

Consider B5, for which the binding result was “no binding”.

The target in a further assay is T2, his-tagged human PVRIG (h-PVRIG-his) …. Put plainly: ELISA, coated antigen. The source holds these as a separate data set. How it is done: as §2
(§5) Binding of the humanized anti-PVRIG/TIGIT bispecific antibodies to human and cynomolgus monkey PVRIG and their blocking of the ligand of human PVRIG were detected according to the methods of Examples 4, 5 and 6.
As to B6, the EC50 amounted to 2.47 nM.

Take B7: the EC50 is 0.32 nM.

As for B5, the EC50 worked out at 1.41 nM.

A further assay addresses T3, his-tagged cynomolgus monkey PVRIG …. Kind of assay: ELISA, coated antigen. The source holds these as a separate data set. On the procedure:
as §2, §5
Turning to B6, the EC50 came out at 0.144 nM.

For the molecule B7, the EC50 was determined as 0.184 nM.

Take B5: the binding result is “no binding”.

The record behind these values is patent US20240376207A1 (JIANGSU HENGRUI PHARMACEUTICALS, published 2024).
